Results taken from patent publication US6114296.

How the values were obtained:
[1] = target: Variant I: V221S+N222S+Q223T (Humicola insolens)
[2] = target: Variant II: V240P+Q241P (Humicola insolens)
[3] = target: Humicola insolens 43 kD endoglucanase (Humicola insolens)

Residual Activity, % DAA (25° C., 5 d storage in liquid detergent with protease) [1]: 83 % DAA | Residual Activity, % DAA (25° C., 5 d storage in liquid detergent with protease) [2]: 81 % DAA | Residual Activity, % DAA (25° C., 5 d storage in liquid detergent with protease) [3]: 63 % DAA
Substance: Savinase protease (from UniProt P29600) (enzyme)
